In PMC8467750:

What was measured:
[1] = molecular target: histamine H2 receptor fused C-terminally to the small fragment of NanoLuc (H2R–NlucC) (human) (UniProt P25021); assay: split reporter (BiFC, NanoBiT); split-NanoLuc mini-G protein recruitment assay in live HEK293T cells transiently co-expressing receptor–NlucC and NlucN–mini-G; recruitment upon histamine (serial dilutions), 37 °C, L-15 medium with 10 mM HEPES, furimazine; AUC of 45 min traces normalised to 100 µM histamine in the canonical system (H2R–mGs or H4R–mGsi, 100%) and L-15 (0%); N = 3, each in triplicate
Chain of UniProt P25021 (P25021 whole entry, the tested form may be a part): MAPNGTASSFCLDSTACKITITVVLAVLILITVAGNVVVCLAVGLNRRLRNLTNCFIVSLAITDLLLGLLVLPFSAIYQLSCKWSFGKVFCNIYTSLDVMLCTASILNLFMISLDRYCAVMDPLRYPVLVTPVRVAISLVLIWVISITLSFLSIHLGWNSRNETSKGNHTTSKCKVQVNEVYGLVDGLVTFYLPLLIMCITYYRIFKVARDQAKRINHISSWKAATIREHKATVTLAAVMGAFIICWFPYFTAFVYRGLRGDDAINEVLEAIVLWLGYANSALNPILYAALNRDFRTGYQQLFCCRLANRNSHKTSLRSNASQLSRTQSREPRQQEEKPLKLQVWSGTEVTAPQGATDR

[2] = molecular target: histamine H4 receptor fused C-terminally to the small fragment of NanoLuc (H4R–NlucC) (human) (UniProt Q9H3N8); assay: as above

Emax of histamine (mini-G recruitment) [1] [%] | pEC50 of histamine (mini-G recruitment) [1] | Emax of histamine (mini-G recruitment) [2] [%] | pEC50 of histamine (mini-G recruitment) [2] | Substance
29.6 | 5.48 | 13.8 |  | mini-G protein mGsq fused N-terminally to the large fragment of NanoLuc (NlucN–mGsq)
26.8 | 5.3 | 100 | 6.6 | mini-G protein mGsi fused N-terminally to the large fragment of NanoLuc (NlucN–mGsi)
100 | 6.86 | -13.5 |  | mini-G protein mGs fused N-terminally to the large fragment of NanoLuc (NlucN–mGs)
